Tests used:
rVEGF164 [1] = molecular target: T1, rVEGF164 (rat, UniProt P16612-2 27-190); assay: ELONA1
T1 sequence: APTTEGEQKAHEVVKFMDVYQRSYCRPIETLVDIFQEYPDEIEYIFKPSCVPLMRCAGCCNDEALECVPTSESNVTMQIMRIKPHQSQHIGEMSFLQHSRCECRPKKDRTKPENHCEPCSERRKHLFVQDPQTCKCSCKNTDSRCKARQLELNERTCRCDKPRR

hVEGF165 = hVEGF165 (human, UniProt P15692-4 27-191); assay: ELONA1
rVEGF164 [2] = molecular target: T1, rVEGF164; assay: ELONA2

B1: V7t1 (ssDNA)
DNA: TGTGGGGGTGGACGGGCCGGGTAGA
With B1 the Kd (rVEGF164 [1]) was 620 ± 140 pM, the Kd (hVEGF165) was 770 ± 170 pM and the Kd (rVEGF164 [2]) was 4300 ± 500 pM.

— publication PMC6547419
